“And” between values parts separate entries of the source, which are not always exact repeats. Equal entries are not always repeated. Where two headings read alike, the source gives them in different places.
Experiments:
[1] = target: gH3–gH4 heterodimer (globular forms of histones H3 and H4) (Xenopus laevis) (UniProt P84233); assay: SEC
[2] = target: H3–H4 complex with H3 labeled with Cy3 at Gln-125 (H3 C110A) (Xenopus laevis) (UniProt P84233); assay: fluorescence polarisation
[3] = target: RbAp48–H3–H4 complex, labeled with Cy3 at Gln-125 on H3 (human | Xenopus laevis) (UniProt Q09028); assay: fluorescence polarisation
[4] = target: H3–H4 complex with H3 labeled with Cy3 at Gln-125 (H3 C110A) (Xenopus laevis) (UniProt P84233); assay: fluorescence polarisation; remark: listed apart in the source
[5] = target: H3–H4 complex with H3 labeled with Cy3 at Leu-65 (H3 C110A) (Xenopus laevis) (UniProt P84233); assay: fluorescence polarisation

Substance | stoichiometry N (ASF1^1-159 : gH3–gH4) [1] | Kd [2] | Kd [3] | Kd [4] | Kd [5]
human ASF1^1-159 (anti-silencing function protein 1, residues 1-159) (from UniProt Q9Y294 1-159) (domain or fragment) | 1 | 0.27 nM | 7.1 nM and 3 nM and 6.8 nM | 0.3 nM | –
human retinoblastoma-associated protein RbAp48 (from UniProt Q09028 1-425) (natural protein) | – | – | – | – | 0.61 nM
